# Laboratory results as given in patent publication US20150299296A1 (Chugai, published 2015).
# Substitutions are numbered along the chain they refer to.
# T1: human FcγRIIa type H extracellular domain with C-terminal His tag (human, UniProt P12318 34-217)
# T1 construct: extracellular domain; also called FcgRIIaH; FcγRIIa H
# T1 sequence (looked up): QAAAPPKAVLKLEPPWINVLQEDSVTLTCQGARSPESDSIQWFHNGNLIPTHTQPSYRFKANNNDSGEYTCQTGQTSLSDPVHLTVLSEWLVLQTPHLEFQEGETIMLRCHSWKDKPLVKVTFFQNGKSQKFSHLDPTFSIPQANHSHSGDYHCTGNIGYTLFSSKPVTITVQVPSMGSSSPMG
# T2: human FcγRIIb extracellular domain with C-terminal His tag (human, UniProt P31994 43-217)
# T2 construct: extracellular domain; For crystals it was expressed with kifunensine and trimmed with Endo F1; also called FcgRIIb; FcγRIIb extracellular region
# T2 sequence (looked up): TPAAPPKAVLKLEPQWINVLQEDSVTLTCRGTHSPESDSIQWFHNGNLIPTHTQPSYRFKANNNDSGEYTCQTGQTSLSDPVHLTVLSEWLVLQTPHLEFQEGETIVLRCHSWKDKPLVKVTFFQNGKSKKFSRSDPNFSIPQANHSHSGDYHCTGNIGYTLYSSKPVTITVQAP
# B1: IL6R-BP201/IL6R-L (antibody, human IgG1, kappa, name in EU numbering)
# heavy: QVQLQESGPGLVKPSETLSLTCAVSGHSISHDHAWSWVRQPPGEGLEWIGFISYSGITNYNPSLQGRVTISRDNSKNTLYLQMNSLRAEDTAVYYCARSLARTTAMDYWGEGTLVTVSSASTKGPSVFPLAPSSKSTSGGTAALGCLVKDYFPEPVTVSWNSGALTSGVHTFPAVLQSSGLYSLSSVVTVPSSSLGTQTYICNVNHKPSNTKVDKKVEPKSCDKTHTCPPCPAPDLLGDDSVFLFPPKPKDTLMISRTPEVTCVVVDVSHEDGEVKFNWYVDGVEVHNAKTKPREEQYNSTYRVVSVLTVLHQDWLNGKEYKCKVSNKALPRPIEKTISKAKGQPREPQVYTLPPSRDELTKNQVSLTCLVKGFYPSDIAVEWESNGQPENNYKTTPPVLDSDGSFFLYSKLTVDKSRWQQGNVFSCSVMHEALHNHYTQESLSLSP
# light: not shown
# B2: IL6R-BP190/IL6R-L (antibody, human IgG1, kappa, name in EU numbering)
# heavy: B1 heavy with D235E, H270D, R332K
# light: not shown
# B3: IL6R-BP211/IL6R-L (antibody, human IgG1, kappa, name in EU numbering)
# heavy: B1 heavy with D239G, H270D, K328A
# light: not shown
# B4: IL6R-BP176/IL6R-L (antibody, human IgG1, kappa, name in EU numbering)
# heavy: B1 heavy with D239G, G273P, K328D, R332K
# light: not shown
# B5: IL6R-BP191/IL6R-L (antibody, human IgG1, kappa, name in EU numbering)
# heavy: B1 heavy with D239G, H270D, K328A, R332K
# light: not shown
# B6: IL6R-BP085/IL6R-L (antibody, human IgG1, kappa, name in EU numbering)
# heavy: B1 heavy with D235E, G273P, R332K
# light: not shown
# B7: IL6R-BP132/IL6R-L (antibody, human IgG1, kappa, name in EU numbering)
# heavy: B1 heavy with D239G, G273P, K328A, R332K
# light: not shown
# B8: IL6R-BP086/IL6R-L (antibody, human IgG1, kappa, name in EU numbering)
# heavy: B1 heavy with D235E, D239G, G273P, K328A, R332K
# light: not shown
# B9: IL6R-BP212/IL6R-L (antibody, human IgG1, kappa, name in EU numbering)
# heavy: B1 heavy with D239G, H270D, Y298D
# light: not shown
# B10: IL6R-BP195/IL6R-L (antibody, human IgG1, kappa, name in EU numbering)
# heavy: B1 heavy with L236Y, H270D, Y298D, K328A, R332K
# light: not shown
# notes: Same printed alterations as IL6R-BP197
# B11: IL6R-2B253/IL6R-L (antibody, human IgG1, kappa, name in EU numbering)
# heavy: B1 heavy with D239G, G273P, V325M, R332A
# light: not shown
# B12: IL6R-BP088/IL6R-L (antibody, human IgG1, kappa, name in EU numbering)
# heavy: B1 heavy with D235E, G273P, K328A, R332K
# light: not shown
# B13: IL6R-BP082/IL6R-L (antibody, human IgG1, kappa, name in EU numbering)
# heavy: B1 heavy with D239G, G273P, R332K
# light: not shown
# B14: IL6R-BP193/IL6R-L (antibody, human IgG1, kappa, name in EU numbering)
# heavy: B1 heavy with D239G, H270D, R332K
# light: not shown
# B15: IL6R-2B261/IL6R-L (antibody, human IgG1, kappa, name in EU numbering)
# heavy: B1 heavy with D239G, G273P, Y298D, R332A
# light: not shown
# B16: IL6R-BP130/IL6R-L (antibody, human IgG1, kappa, name in EU numbering)
# heavy: B1 heavy with D239G, G273P, V325M, R332K
# light: not shown
# B17: IL6R-BP133/IL6R-L (antibody, human IgG1, kappa, name in EU numbering)
# heavy: B1 heavy with L236Y, D239G, G273P, R332K
# light: not shown
# B18: IL6R-BP210/IL6R-L (antibody, human IgG1, kappa, name in EU numbering)
# heavy: B1 heavy with D235E, H270D
# light: not shown
# B19: IL6R-BP151/IL6R-L (antibody, human IgG1, kappa, name in EU numbering)
# heavy: B1 heavy with L236Y, G273P, K328A
# light: not shown
# B20: IL6R-BP083/IL6R-L (antibody, human IgG1, kappa, name in EU numbering)
# heavy: B1 heavy with D235E, D239G, G273P, Y298D, R332K
# light: not shown
# B21: IL6R-BP129/IL6R-L (antibody, human IgG1, kappa, name in EU numbering)
# heavy: B1 heavy with D239G, G273P, Y298D, R332K
# light: not shown
# B22: IL6R-BP188/IL6R-L (antibody, human IgG1, kappa, name in EU numbering)
# heavy: B1 heavy with H270D, R332K
# light: not shown
# B23: IL6R-BP205/IL6R-L (antibody, human IgG1, kappa, name in EU numbering)
# heavy: B1 heavy with D239G, Y298D
# light: not shown
# B24: IL6R-BP152/IL6R-L (antibody, human IgG1, kappa, name in EU numbering)
# heavy: B1 heavy with L236Y, G273P, Y298D, K328A
# light: not shown
# B25: IL6R-BP202/IL6R-L (antibody, human IgG1, kappa, name in EU numbering)
# heavy: B1 heavy with D235E, K328A
# light: not shown
# B26: IL6R-BP182/IL6R-L (antibody, human IgG1, kappa, name in EU numbering)
# heavy: B1 heavy with D239G, Y298D, R332K
# light: not shown
# B27: IL6R-BP087/IL6R-L (antibody, human IgG1, kappa, name in EU numbering)
# heavy: B1 heavy with D235E, L236Y, D239G, G273P, R332K
# light: not shown
# B28: IL6R-BP089/IL6R-L (antibody, human IgG1, kappa, name in EU numbering)
# heavy: B1 heavy with D235E, L236Y, D239G, G273P, K328A, R332K
# light: not shown
# B29: IL6R-BP084/IL6R-L (antibody, human IgG1, kappa, name in EU numbering)
# heavy: B1 heavy with D235E, D239G, G273P, V325M, R332K
# light: not shown
# B30: IL6R-BP131/IL6R-L (antibody, human IgG1, kappa, name in EU numbering)
# heavy: B1 heavy with G273P, R332K
# light: not shown
# B31: IL6R-BP204/IL6R-L (antibody, human IgG1, kappa, name in EU numbering)
# heavy: B1 heavy with D239G, K328A
# light: not shown
# B32: IL6R-BP146/IL6R-L (antibody, human IgG1, kappa, name in EU numbering)
# heavy: B1 heavy with D235E, L236Y, G273P, K328A, R332A
# light: not shown
# B33: IL6R-BP178/IL6R-L (antibody, human IgG1, kappa, name in EU numbering)
# heavy: B1 heavy with R332K
# light: not shown
# B34: IL6R-BP181/IL6R-L (antibody, human IgG1, kappa, name in EU numbering)
# heavy: B1 heavy with D239G, K328A, R332K
# light: not shown
# Target: T3, human FcγRIa extracellular domain with C-terminal His tag (human, UniProt P12314 16-292)
# T3 construct: Whole entry named; also called FcgRIa; FcgIa
# Assay: SPR; IL6R-BF648/IL6R-L=100
# Method: (§1) IL6R-L was utilized as the common antibody L chain for all of the antibodies, the antibodies were expressed and purified according to the method of Reference Example 1, and binding to each of the FcγRs (FcγRIa, FcγRIIa type H, FcγRIIa type R, FcγRIIb, and FcγRIIIa type V) was comprehensively evaluated by the method of Reference Example 2.
# (§2) Relative binding activities were calculated for the results of analyzing interactions with the respective FcγRs according to the following method.
# T3 sequence (P12314 16-292): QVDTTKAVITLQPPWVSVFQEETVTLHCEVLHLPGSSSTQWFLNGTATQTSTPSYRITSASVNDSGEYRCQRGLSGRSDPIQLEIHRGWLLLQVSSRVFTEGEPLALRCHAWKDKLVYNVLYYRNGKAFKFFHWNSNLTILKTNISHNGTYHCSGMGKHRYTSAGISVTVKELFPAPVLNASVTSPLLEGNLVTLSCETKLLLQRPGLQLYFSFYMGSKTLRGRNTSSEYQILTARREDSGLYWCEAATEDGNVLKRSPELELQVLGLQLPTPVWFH
row,relative binding activity,Binder
1,57,B1
2,50,B2
3,128,B3
4,102,B4
5,125,B5
6,19,B6
7,91,B7
8,72,B8
9,117,B9
10,68,B10
11,155,B11
12,25,B12
13,74,B13
14,113,B14
15,100,B15
16,104,B16

row,relative binding activity,Binder
1,41,B17
2,57,B18
3,39,B19
4,50,B20
5,68,B21
6,74,B22
7,97,B23
8,34,B24
9,43,B25
10,95,B26
11,33,B27
12,43,B28
13,109,B29
14,33,B30
15,110,B31

# Target: T1, human FcγRIIa type H extracellular …
# Assay: SPR; IL6R-BF648/IL6R-L=100
# Method: as §1, §2
row,relative binding activity,Binder
1,359,B1
2,224,B2
3,203,B32
4,128,B4
5,145,B5
6,158,B6
7,130,B7
8,116,B8
9,135,B9
10,344,B10
11,207,B11
12,166,B12
13,106,B13
14,154,B14
15,224,B16
16,151,B17
17,279,B18
18,621,B19
19,259,B33
20,98,B21
21,108,B23
22,548,B24
23,285,B25
24,139,B26
25,179,B27
26,186,B28
27,162,B29
28,253,B30
29,137,B31

# Target: T2, human FcγRIIb extracellular domain with …
# Assay: SPR; IL6R-BF648/IL6R-L=100
# Method: as §1, §2
row,relative binding activity,Binder
1,186,B1
2,165,B3
3,156,B32
4,147,B4
5,152,B6
6,150,B7
7,137,B8
8,173,B9
9,156,B11
10,161,B12
11,136,B13
12,173,B14
13,115,B15
14,137,B17
15,187,B18
16,122,B20
17,179,B33
18,138,B21
19,179,B22
20,167,B23
21,178,B24
22,185,B25
23,173,B26
24,137,B27
25,147,B28
26,141,B29
27,165,B31

# Target: T4, human FcγRIIIa type V extracellular domain with C-terminal His tag (human, UniProt P08637 17-208)
# T4 construct: extracellular domain; also called FcgRIIIaV; FcγRIIIaV
# Assay: SPR; IL6R-BF648/IL6R-L=100
# Method: as §1, §2
# T4 sequence (P08637 17-208 F176V): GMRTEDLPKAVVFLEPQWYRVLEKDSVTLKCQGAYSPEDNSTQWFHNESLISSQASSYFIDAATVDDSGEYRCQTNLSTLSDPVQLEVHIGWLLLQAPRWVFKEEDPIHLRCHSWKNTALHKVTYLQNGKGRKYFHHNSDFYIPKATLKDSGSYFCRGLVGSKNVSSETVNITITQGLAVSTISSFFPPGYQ
row,relative binding activity,Binder
1,155,B2
2,87,B3
3,142,B5
4,104,B6
5,123,B8
6,221,B10
7,126,B11
8,122,B12
9,87,B13
10,87,B15
11,114,B17
12,221,B19
13,107,B20
14,122,B34
15,95,B21
16,158,B27
17,136,B28
18,106,B29
19,118,B30
